B1: Transmembrane protein 59 (Homo sapiens), Q9BXS4 (parent)
chain: MAAPKGSLWVRTQLGLPPLLLLTMALAGGSGTASAEAFDSVLGDTASCHRACQLTYPLHTYPKEEELYACQRGCRLFSICQFVDDGIDLNRTKLECESACTEAYSQSDEQYACHLGCQNQLPFAELRQEQLMSLMPKMHLLFPLTLVRSFWSDMMDSAQSFITSSWTFYLQADDGKIVIFQSKPEIQYAPHLEQEPTNLRESSLSKMSYLQMRNSQAHRNFLEDGESDGFLRCLSLNSGWILTTTLVLSVMVLLWICCATVATAVEQYVPSEKLSIYGDLEFMNEQKLNRYPASSLVVVRSKTEDHEEAGPLPTKVNLAHSEI
B2: Transmembrane protein 59 (Homo sapiens), Q9BXS4 (parent)
chain: B1 chain
partner: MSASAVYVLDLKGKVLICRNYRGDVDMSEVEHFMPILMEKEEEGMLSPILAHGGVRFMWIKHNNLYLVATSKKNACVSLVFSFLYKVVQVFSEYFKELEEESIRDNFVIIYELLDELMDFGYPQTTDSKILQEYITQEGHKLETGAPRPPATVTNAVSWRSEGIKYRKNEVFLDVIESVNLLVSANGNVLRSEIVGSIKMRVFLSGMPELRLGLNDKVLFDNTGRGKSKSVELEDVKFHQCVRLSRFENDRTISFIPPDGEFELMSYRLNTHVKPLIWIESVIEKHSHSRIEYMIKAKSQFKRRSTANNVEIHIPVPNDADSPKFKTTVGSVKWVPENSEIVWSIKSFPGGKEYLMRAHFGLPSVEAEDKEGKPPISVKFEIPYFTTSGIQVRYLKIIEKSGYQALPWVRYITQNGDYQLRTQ

Variants of: B1
Conditions: with ATG16L1, Q676U5
Chain of ATG16L1, Q676U5 (Q676U5 whole entry): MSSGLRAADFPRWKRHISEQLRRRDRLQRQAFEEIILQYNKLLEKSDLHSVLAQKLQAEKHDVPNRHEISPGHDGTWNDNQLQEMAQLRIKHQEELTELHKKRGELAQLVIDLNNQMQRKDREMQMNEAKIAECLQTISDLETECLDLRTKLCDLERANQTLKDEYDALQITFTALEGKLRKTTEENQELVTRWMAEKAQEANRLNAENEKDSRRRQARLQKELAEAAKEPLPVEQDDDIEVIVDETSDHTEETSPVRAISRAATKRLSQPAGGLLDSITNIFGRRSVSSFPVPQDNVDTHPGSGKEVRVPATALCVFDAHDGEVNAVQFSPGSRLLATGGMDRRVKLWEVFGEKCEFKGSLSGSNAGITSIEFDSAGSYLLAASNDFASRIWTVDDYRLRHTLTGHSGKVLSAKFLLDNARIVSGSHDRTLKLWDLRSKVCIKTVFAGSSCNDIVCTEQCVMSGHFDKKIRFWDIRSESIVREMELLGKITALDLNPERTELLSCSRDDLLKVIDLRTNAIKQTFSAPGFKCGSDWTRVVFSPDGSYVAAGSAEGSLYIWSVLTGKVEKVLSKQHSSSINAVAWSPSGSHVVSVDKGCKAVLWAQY

Variant | effect of a mutation on the interaction
Y277A;L280A | disrupting interaction

Variants of: B1
Conditions: with ATG16L1, Q676U5
Remark: another data set of the same source

Variant | effect of a mutation on the interaction
Y268A;E272A;Y277A;L280A | disrupting interaction

Variants of: B1
Conditions: with ATG16L1, Q676U5
Remark: another data set of the same source

Variant | effect of a mutation on the interaction
Y268A;E272A;Y277A;L280A | disrupting interaction

Variants of: B1
Conditions: with ATG16L1, Q676U5
Remark: another data set of the same source

Variant | effect of a mutation on the interaction
Y268A;E272A;Y277A;L280A | disrupting interaction

Variants of: B1
Conditions: with ATG16L1, Q676U5
Remark: another data set of the same source

Variant | effect of a mutation on the interaction
Y268A;E272A;Y277A;L280A | disrupting interaction

Variants of: B1
Conditions: with ATG16L1, Q676U5
Remark: another data set of the same source

Variant | effect of a mutation on the interaction
Y268A;E272A;Y277A;L280A | disrupting interaction

Variants of: B1
Conditions: with ap2m1_human AP2M1, Q96CW1
Chain of ap2m1_human AP2M1, Q96CW1 (Q96CW1 whole entry): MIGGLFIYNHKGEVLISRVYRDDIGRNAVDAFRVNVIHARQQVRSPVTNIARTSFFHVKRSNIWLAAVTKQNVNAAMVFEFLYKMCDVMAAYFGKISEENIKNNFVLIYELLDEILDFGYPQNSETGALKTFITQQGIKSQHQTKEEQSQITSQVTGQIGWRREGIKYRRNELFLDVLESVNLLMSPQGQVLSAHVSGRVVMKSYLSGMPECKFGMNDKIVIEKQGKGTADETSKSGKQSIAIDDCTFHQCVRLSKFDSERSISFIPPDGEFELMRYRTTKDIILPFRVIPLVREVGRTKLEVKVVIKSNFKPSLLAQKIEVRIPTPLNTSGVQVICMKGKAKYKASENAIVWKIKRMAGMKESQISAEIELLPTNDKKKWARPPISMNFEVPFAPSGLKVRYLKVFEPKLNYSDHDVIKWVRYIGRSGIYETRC

Variant | effect of a mutation on the interaction
Y268A;E272A;Y277A;L280A | disrupting interaction

Variants of: B1
Conditions: with mlp3a_human MAP1LC3A

Variant | effect of a mutation on the interaction
Y268A;E272A;Y277A;L280A | disrupting interaction

Variants of: B2
Conditions: with ap1m1_human AP1M1, Q9BXS5

Variant | effect of a mutation on the interaction
Y268A;E272A;Y277A;L280A | disrupting interaction

From IntAct's records for PubMed 23376921
